Results published in patent US20150057236.
Marks after values point to notes of the source that are not given here.

Experiments:
[1] = target: GDH K503 (498-509 + WW) malonyl peptide (UniProt P00367)
[2] = target: H3 K9 (4-13 + WW) acetyl peptide (UniProt P68431)
[3] = system: ACS2 K628 (623-632 + WW) malonyl peptide
[4] = system: ACS2 K628 (623-632 + WW) acetyl peptide
[5] = target: H3 K9 (4-13 + WW) succinyl peptide (UniProt P68431)
[6] = system: ACS2 K628 (623-632 + WW) succinyl peptide
[7] = target: GDH K503 (498-509 + WW) succinyl peptide (UniProt P00367)
[8] = target: GDH K503 (498-509 + WW) acetyl peptide (UniProt P00367)
[9] = target: H3 K9 (4-13 + WW) malonyl peptide (UniProt P68431)

Sequence of human Sirt5 (chain, as listed by the source): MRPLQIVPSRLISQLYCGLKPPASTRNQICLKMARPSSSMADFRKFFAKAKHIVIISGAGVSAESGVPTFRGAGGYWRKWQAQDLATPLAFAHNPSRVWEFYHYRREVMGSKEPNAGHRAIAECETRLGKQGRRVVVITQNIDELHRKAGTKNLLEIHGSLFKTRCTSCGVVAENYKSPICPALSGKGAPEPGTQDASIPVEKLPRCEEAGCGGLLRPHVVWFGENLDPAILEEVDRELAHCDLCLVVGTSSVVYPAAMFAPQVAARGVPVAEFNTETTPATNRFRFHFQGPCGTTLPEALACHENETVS
Sequence of Sirt5 R105M (chain, as listed by the source R105M): as the sequence (chain, as listed by the source) above, with R105M counted along it
Sequence of Sirt5 Y102F (chain, as listed by the source Y102F): as the sequence (chain, as listed by the source) above, with Y102F counted along it
Sequence of Sirt5 H158Y (chain, as listed by the source H158Y): as the sequence (chain, as listed by the source) above, with H158Y counted along it

## Sirt5 Y102F
H3K9 succinyl peptide
  Km for peptide (µM), desuccinylation: ND (>750)*
  kcat/Km (s^-1M^-1), desuccinylation: 397 s^-1M^-1
H3K9 acetyl peptide
  Km for peptide (µM), deacetylation: ND (>750)*
  kcat/Km (s^-1M^-1), deacetylation: 2 s^-1M^-1

## human Sirt5
[1]
  Peptide Km (µM), demalonylation: 8.7 µM
  kcat (s^-1), demalonylation: 0.014 s⁻¹
  kcat/Km (s^-1M^-1), demalonylation: 1600 s^-1M^-1
H3K9 succinyl peptide
  Km for peptide (µM), desuccinylation: 41 µM
  hydrolysis of acyl peptide (LC-MS): the malonyl and succinyl peptides were hydrolyzed significantly
  kcat (s^-1), desuccinylation: 0.029 s⁻¹
  kcat/Km (s^-1M^-1), desuccinylation: 710 s^-1M^-1
H3K9 malonyl peptide
  hydrolysis of acyl peptide (LC-MS): the malonyl and succinyl peptides were hydrolyzed significantly
[2]
  Peptide Km (µM), deacetylation: ND (>750)
  kcat/Km (s^-1M^-1), deacetylation: 7.8 s^-1M^-1
H3K9 acetyl peptide
  Km for acetyl peptide (µM): ND (>750)*
  Km for peptide (µM), deacetylation: ND (>750)*
  hydrolysis of acyl peptide (LC-MS): with Sirt5, very little hydrolysis of the acetyl peptide was observed
  kcat/Km (s^-1M^-1): 2 s^-1M^-1
  kcat/Km (s^-1M^-1), deacetylation: 2 s^-1M^-1
[3]
  Peptide Km (µM), demalonylation: 150 µM
  kcat (s^-1), demalonylation: 0.079 s⁻¹
  kcat/Km (s^-1M^-1), demalonylation: 520 s^-1M^-1
[4]
  Peptide Km (µM), deacetylation: ND (>750)
  kcat/Km (s^-1M^-1), deacetylation: 18 s^-1M^-1
[5]
  Peptide Km (µM), desuccinylation: 5.8 µM
  kcat (s^-1), desuccinylation: 0.025 s⁻¹
  kcat/Km (s^-1M^-1), desuccinylation: 4300 s^-1M^-1
[6]
  Peptide Km (µM), desuccinylation: 450 µM
  kcat (s^-1), desuccinylation: 0.268 s⁻¹
  kcat/Km (s^-1M^-1), desuccinylation: 600 s^-1M^-1
[7]
  Peptide Km (µM), desuccinylation: 14 µM
  kcat (s^-1), desuccinylation: 0.028 s⁻¹
  kcat/Km (s^-1M^-1), desuccinylation: 2000 s^-1M^-1
[8]
  Peptide Km (µM), deacetylation: ND (>750)
  kcat/Km (s^-1M^-1), deacetylation: < 2 s^-1M^-1
KQTAR(SuK)-AMC peptide
  percent hydrolysis in 3 hrs, 1 µM Sirt5 (HPLC): 10% and 60% hydrolysis by 1 and 5 µM of Sirt5 in 3 hrs
  percent hydrolysis in 3 hrs, 5 µM Sirt5 (HPLC): 10% and 60% hydrolysis by 1 and 5 µM of Sirt5 in 3 hrs
[9]
  Peptide Km (µM), demalonylation: 6.1 µM
  kcat (s^-1), demalonylation: 0.037 s⁻¹
  kcat/Km (s^-1M^-1), demalonylation: 6100 s^-1M^-1

## Sirt5 H158Y
H3K9 succinyl peptide
  Km for peptide (µM), desuccinylation: ND (>750)*
  kcat/Km (s^-1M^-1), desuccinylation: 75 s^-1M^-1

## human Sirt6
H3K9 succinyl peptide
  hydrolysis of acyl peptide (LC-MS): Sirt6 and Sirt7 have no detectable activity on acetyl, malonyl, or succinyl peptides under the conditions tested
H3K9 malonyl peptide
  hydrolysis of acyl peptide (LC-MS): Sirt6 and Sirt7 have no detectable activity on acetyl, malonyl, or succinyl peptides under the conditions tested
H3K9 acetyl peptide
  hydrolysis of acyl peptide (LC-MS): Sirt6 and Sirt7 have no detectable activity on acetyl, malonyl, or succinyl peptides under the conditions tested

## Sirt5 R105M
H3K9 succinyl peptide
  Km for peptide (µM), desuccinylation: ND (>750)*
  kcat/Km (s^-1M^-1), desuccinylation: 0.9 s^-1M^-1
H3K9 acetyl peptide
  Km for peptide (µM), deacetylation: ND (>750)*
  kcat/Km (s^-1M^-1), deacetylation: 0.5 s^-1M^-1
